Laboratory results published in patent publication US20170145379.

Legend:
[1] = test system: T1, 18-mer peptide PQLPYPQPQLPYPQPQPF
T1 sequence: PQLPYPQPQLPYPQPQPF

[2] = test system: T2, 33-mer peptide LQLQPFPQPQLPYPQPQLPYPQPQLPYPQPQPF from α2-gliadin
T2 sequence: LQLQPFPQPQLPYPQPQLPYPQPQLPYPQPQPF

Substance | Km (protease activity against 18-mer peptide) [1] | Vmax (protease activity against 18-mer peptide) (mg 18-mer peptide/ml) [1] | in vitro degradation of the peptide (protease activity) [2]
elongation factor G from Streptococcus thermophilus (strain P02638 F9 = DN_001343, CNCM I-2776), purified from culture supernatant | 0.794 mg 18-mer peptide/m1 | 1.5 | The protease able to degrade in vitro the 33-mer as well as the 18-mer peptide
elongation factor Tu from Lactobacillus casei (strain P02503 A1 = DN_114001, CNCM I-1518), purified from culture supernatant | 0.643 mg 18-mer peptide/ml | 1.27 | The protease able to degrade in vitro the 33-mer as well as the 18-mer peptide
